Values of other authors as cited in publication PMC3310959.
pKd: −log10 of the molar value.

Target: E-cadherin (Mus musculus) (UniProt P09803)

pKd: 4.01
Substance: E-cadherin (from UniProt P09803)
